The source of these data is the nanobody polyreactivity screen of Harvey et al. (2022).

The series is described as follows: yeast display, Sf9 membrane polyspecificity reagent, FACS + sequencing; frameworks hold sequencing errors. A digest of the protocol:
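After 36–48 hours of galactose induction, yeast (Saccharomyces cerevisiae BJ5465) displaying a synthetic nanobody library were stained at 4 °C for 1 hour with 10% biotinylated, detergent-solubilized Sf9 membrane reagent. Streptavidin microbeads enriched the stained cells before FACS sorting into low and high (top ~1%) gates on anti-HA and streptavidin fluorescence. Each clone's polyreactivity label reflects its gate of origin.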
Take “QVQLVESGGGLVQAGGSLRLSCAASGSTRFWKDMGWYRQAPWKERELVAVISFSGVSTYYADSVKGRFTISRDNAKNTVYIQMNRLKPEDTAVYYCAIEDGYSQLKTTFDEPGYGSWGQGTQVNVSS”: the “polyreactivity (PSR sort gate)” value is “low polyreactivity”.
For “QVQLVESGGGLVQAGGSLRLSCAASGLTLQPYAMGWYRQAPGKERELVAAITSGGSTYYADSVKGRFTISRDNAKNTVYLQMNSLKPEDTAVYYCAAVGRHYYVKFDYWGQGTQVTVSS”, the “polyreactivity (PSR sort gate)” value is reported as “low polyreactivity”.
Then “QVQLVETGGGLVQAGGSLRLSCAASGIIFATYAMGWYRQAPGKEMELVAAISRRGGYTYYADSVKGRFTISRDNANNTVYLQMNSLKPEDSAVYYCAKSNTLASVAHDYWGQGTQVTVTS”, with “high polyreactivity”.
Then “QVQLVESGGGLVQAGGSLRLSCAASGRIFKNNAMGWYRQAPGKERELVAAITWRSGRTYYADSVKGRFTISRDNAKNTVYLQMNSLKAEDTAVYYCAKQVFGYGIVNNGDYWGQGTQVTVSS”, with “high polyreactivity”; and “QVQLVESGGGLVQAGGSLRLSCAASGSIFADYTMGWYRQAPGKERELVAAISSDDSTYYADSVKGRFTISRDNAKNTVYLQMNSLKPEDTAVYYCNADGSIGPEEYWGQGTQVTVSS”, with “low polyreactivity”.
As to “QVQLVESGGGLVQAGGSLRLSCAASGSTFSYYAMGWYRQAPGKERELVAAISSRGGSTYYADSVKGRFTISRDNAKNTVYLQMNSQKPEDTAVYYCNADHQFRSSVSGDHDYWGQGTQVTVSS”, the “polyreactivity (PSR sort gate)” value is given as “high polyreactivity”.
On to “QVQLVESGGCLVQAGGSLRLSCAASGFTFTKYAMGWYRQAPGQERELVAAINRSGRTYYADSVKGRFTISRDNAKNTVYLQMNSLKPEDTAVYYCAADTRYQYSAYDYWGQGTQVTVSS”, for which the “polyreactivity (PSR sort gate)” value was “high polyreactivity”.
Regarding “QVQLVESGGGLVQAGGSLRLSCAASGRIFYYNAMGWYRQAPGKEREFVAAISSGGGSTYYADSVKGRFTISRDNAKNTVYLQMNSLKPEDTAVYYCAADGYYYDYYYYWGDYGYWGQGTQVTVSS”, the “polyreactivity (PSR sort gate)” value is “high polyreactivity”.
The value for “QVQLVESGGGLVQAGGSLRLSCAASGRTFRPYAMGWYRQAPGKERDLVAAIDSSGTSTYYADSVKGRFTISRDNAKKTVYLKMNSLKPEDTAVYYCAKAWPDHWYSRYDYWGQGTQVTVSS” was “low polyreactivity”.
Regarding “QVQLVESGGGLVQAGGSLRLSCAASGSIFSDYAMGWYRQAPGKERELVAASTQSGGSTYADSLKGRFSISRDNAKNTVYLQMNSLKPEDTAVYYCADRHDKRRQYYVGQSAFDYWGQGTQVTVSS”, the “polyreactivity (PSR sort gate)” value is given as “low polyreactivity”.
The value for “QVQLVESGGGLLQAGGSLRLSCDASGRIFGPNARGWYRQAPGKERELVDSISYSGGYTYYADSVKGRFTISRDNAKITFYLQMLSLIPVDTAVYYCAKGGYWSGYNYWGHGTQVTVSS” was “low polyreactivity”; that for “QVQLVESVGGLVQAGGSLRLSCAASGSTCQRYAIGWYRQAPGKERELVAAISDGGSTNYADSVKGRFTISRDNAKNTVYLQMNSLKPEDTAVSYCAAKYLSRYDYWGQGTQVTVSS” was “low polyreactivity”.
For “QVQLVESGGGLVQAGGSLRLSCAASGYIFKVNSMGWYRQAPGKERELVADISRNSGSTRYADSVKGRFTISRDNAKNTVYLQMNSLKPDDTAVYYFAADGRYWVKPGSPWDRSRYDYWGQGTQVTVSS”, the “polyreactivity (PSR sort gate)” value is reported as “low polyreactivity”.
Then “QVQLVESGGGLVQAGGSLRLSCAASGFTFSHYPMGWYRQAPGKERELVASISRRCGTTYYADSVKGRFTISRDNAKNTVYLQMNSLKPEDTAVYYCAVDLYIYYREYDYWGQGTQVTVSS”, with “high polyreactivity”; and “QVQLVESGGGLVQAGGSLRLSCAASGGIILPYAMGWYRQAPGKERELVAAISGRTGSTNYADSVKGRFTISRDNAKNTVYLQMNSLKPEDTAVYYCAARGVRSYFFPYNYWGQGTQVTVSS”, with “high polyreactivity”; and “QVQLVESGGGLLQAGGSLRLSCAASGRTIDVYAMGWYTQAPGKERELVAAISWSGGGTYYADSVKGRFTISRDNAKNTVYFQMHSLKAEDTAVYYCAAALTFALDPNRYTYSDYYYWGQGTQVTVSS”, with “low polyreactivity”.
Take “QVQLVESGGGLVQAGGSLRLSCAASGRIFYYYAMGWYRQAPGKERELVAAITRGDSTTYADSVKGRFTISRDNAKNTVYLKMNILKPEDTAVYYCNAGRGTFKRYTALQYWGQGTQVTVSS”: the “polyreactivity (PSR sort gate)” value is “low polyreactivity”.
For “QGQLVESGGGLVQAGGSLRLSCAASGRIFPGNVMGWYRPAPGKERELVAAISSSGGSTYYADSVKGRFTISRDNAKNTVYLQMNSLKPEDTAVYYCAADSSDWPYDYWGQGTQVTVSS”, the “polyreactivity (PSR sort gate)” value is “low polyreactivity”.
Then “QGQLGESGGGLVQAGGSLRLSSPASGIIFWDYAMAWSRQSPGNEREFVAAINTSGGTTTYADSVKGRFTISRDNAKNTVYLQMNSLKPEDTAVYYCAADPWGYYSYAYYYWGQGTQVTVSS”, with “low polyreactivity”; and “QVQLVESGGGLVQAGGCLRLSCAASGSTFSPNAMGWYRQAPGKERELVAAISVSCGTTYYADSVKGRFTISRDNAKNTVYLQMNSLKPEDTAVYYCAAKPYPTDDYWGQGTQVTVSS”, with “low polyreactivity”; and “QVHFVESGGGLVQAGGSLRLSSAASGRTFQYNAMGWYRQAPGKERELVARITWSGDSTYYADSVKGRFTISRDNAKNSVYLQMNSLKPEDTAVYYCNAGRRWRRTAYDYWGQGTQVTVSS”, with “high polyreactivity”.
In the case of “HVLLVESGGGLVQAGGSLLLSCAASGSPFYTNAMVGFRKAPGKEREVVASITDGGDSTQYADSVKGRFTISRDYAKNTVYLQMNSLKPEDTAVYYCAVDYHYFQEYDTWGQGTQVTVSS”, the “polyreactivity (PSR sort gate)” value is “low polyreactivity”.
In the case of “QVQLVESGGGLVQAGGSLRLSCAASGSTFLYYEMGWYRQAPGKDRELVAAISASGGSTYYADSVKGRFTISRDNAKSTVYLQMNSLKPEDTAVYYCAAVYHWVRPILYYWGQGTQVTVSS”, the “polyreactivity (PSR sort gate)” value is recorded as “high polyreactivity”.
On to “QVQLVESGGGLVQAGGSLRLSCAASGSTFAPNAMGWYRQAPGKERELVASIRRGGSTHYADSVKGRFTISRDNAKNTVYVQMNSLKPEDTAVYYCAKDVWRHYLNLYDYWGQGTQVTVSS”, for which the “polyreactivity (PSR sort gate)” value is “low polyreactivity”.
Then “QVQRVESGGGLVQAGGSLRLSCAASGSTFYAYAMGWYRQSPGKERELVATITWSGGSTFYADSVKGRFTISRDNAKNTVYLQMNSLKPEDTAVYYCAARSRFPTIADGDYWGQGTQVTVSS”, with “low polyreactivity”; and “QVQLVESGGGLVQAGGSLRLSCAASGFTFYRYAMGWYRQAPGKERELVAAITRSGSRSYYADSVKGRFTISRDNAKNTVYLQMNSLKPEDTAVYSCNGPRPASTDRRRYNYCGQGTQVTVSS”, with “high polyreactivity”; and “QVQLVESGGGLVQAGGSLRLSCAASGRIFARYAMGWYRQAPGKERELVAAISFRGGSTYYADSVKGRFTISRDNAQNTVYLPMNSLKPEDTAVYYCNARYGRGGYDYWGQGTQVSVSS”, with “high polyreactivity”.
Regarding “QVQLVESGGGLVQAGGSLRLSCAASGFIFGRYAMGWYRQAPGKERELVAAISRGGGSTRYADSVKGRFTISRDNAKNTVYLQMKSLKPEDTAVYYCAAYRYWGRTSYSYDYWGQGTQVTVSS”, the “polyreactivity (PSR sort gate)” value is listed as “high polyreactivity”.
The value for “QVQLVESGGGLVQAGGSLRLSCAASGRIFRGNAMGWYRQVPGKERELVAAISSGTRTTYADSVKGRFTISRDNAKNTVYLQMNSLKPEDTAVYYCAAYNSYLGYPYYYWGQGTQVTVSS” was “high polyreactivity”; that for “QVQLVESGGGLVQAGGSLRLSCAASASIFAYNAMGWYRQAPGKERELVAAISYSGASTYYADSVKGRFTISRDYAKNTVYLQMNSLKPEDTAVYYCAATSRRRGTKGYWQVWPRFDYWGQGTQVTVSS” was “high polyreactivity”.
